Results taken from patent publication US7105641.

These substances were tested against MIP-1α/RANTES receptor (Homo sapiens (Human)) (UniProt P32246) (assay: cell-based or functional assay).
Chain of MIP-1α/RANTES receptor (Homo sapiens (Human)) (P32246 whole entry): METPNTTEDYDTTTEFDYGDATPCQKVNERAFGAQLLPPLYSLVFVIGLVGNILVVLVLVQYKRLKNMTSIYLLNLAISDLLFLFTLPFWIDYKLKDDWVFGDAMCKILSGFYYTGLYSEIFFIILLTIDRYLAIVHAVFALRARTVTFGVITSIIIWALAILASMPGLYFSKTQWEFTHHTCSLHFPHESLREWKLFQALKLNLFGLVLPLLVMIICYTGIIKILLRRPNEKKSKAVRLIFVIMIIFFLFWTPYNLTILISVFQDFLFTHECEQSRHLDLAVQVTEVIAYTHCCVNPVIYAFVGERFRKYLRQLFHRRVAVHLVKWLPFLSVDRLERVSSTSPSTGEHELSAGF

Substance	IC50(nM), Inhibition of Adenylyl Cyclase
Gro-α (from UniProt P09341 35-107) (ligand)	> 1000 nM

What follows are substances tested against MCP-1RB (monocyte chemoattractant protein-1 receptor B) (human) (UniProt P41597) (assay: cell-based or functional assay).
Chain of MCP-1RB (monocyte chemoattractant protein-1 receptor B) (human) (P41597 other isoform, or with tags, fused parts or gaps): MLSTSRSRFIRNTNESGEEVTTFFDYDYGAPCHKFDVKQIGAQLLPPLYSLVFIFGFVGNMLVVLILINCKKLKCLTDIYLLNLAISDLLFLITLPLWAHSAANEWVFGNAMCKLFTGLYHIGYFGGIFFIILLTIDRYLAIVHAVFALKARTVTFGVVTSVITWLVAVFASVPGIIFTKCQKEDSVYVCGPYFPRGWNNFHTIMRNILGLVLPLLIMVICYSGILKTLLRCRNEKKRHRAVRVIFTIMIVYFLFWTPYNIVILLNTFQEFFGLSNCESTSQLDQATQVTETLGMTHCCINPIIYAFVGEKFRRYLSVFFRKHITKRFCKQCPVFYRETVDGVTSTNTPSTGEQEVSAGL

Substance	IC50(nM), Inhibition of Adenylyl Cyclase
MIP-1β (from UniProt P13236 24-92) (ligand)	> 1000 nM
MIP-1α (from UniProt P10147 27-92) (ligand)	> 1000 nM
RANTES (from UniProt P13501 24-91) (ligand)	> 1000 nM
Gro-α (from UniProt P09341 35-107) (ligand)	> 1000 nM
IL-8 (interleukin-8) (from UniProt P10145 28-99) (ligand)	> 1000 nM
